We go through four substances from publication PMC12307675.

Broadly, the Kd is the constant that tells how readily two partners part at equilibrium.

The assay addresses recombinant SARS-CoV-2 spike protein (SARS-CoV-2) (UniProt P0DTC2). Kind of assay: SPR.

Take “HMGB1-A box (aa 1–79), 6x His-tagged (from UniProt P09429 1-79) (domain or fragment)”: the Kd was 6100 nM. Then “full-length HMGB1 (HMGB1-WT), 6x His-tagged (from UniProt P09429 1-215) (natural protein)”, with 3550 nM; and “HMGB1-B box (aa 89–162), 6x His-tagged (from UniProt P09429 89-162) (domain or fragment)”, with 1020 nM; and “acidic C-tail-deleted HMGB1 (HMGB1-ΔC, aa 1–186), 6x His-tagged (from UniProt P09429 1-186) (domain or fragment)”, with 1380 nM.
